Measured values: a protein production outcome set (Wang et al. 2014)

Assay: label from the status in PepcDB records
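Note: failed if final PepcDB status was selected cloned or expressed and not failed if soluble or beyond.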

Q: For “MKPTMMTYINEEEEMCRVILADFQTNAEKLESLVKNGAKEWLILATGSSLNAAQSAKYYIENLADVRITIEEPFNHLYYEKLSSHLDLVIGISQSGQSTSTISALERVKKEASVPVVALTSDVTSEIAEFADITLDIGSGKERVGYVTKGFTATVLTLMLTGLHFAYKTVQIDETRFNNEISAFSRAIDAIPATIAETEAFYERWQEEFATAPKFTAIGYGPTVGTCKEFETKFSETVRVPSQGLDLEAFMHGPYLEVNPQHRIFFLETASAVTERLVLLRDYESKYTPFTYTVKFGKGEDDRTLVIPTDLDEYQAPFLMILPFQILAHHIAELKGNKLTERIYTDFGVAMKSKTKPGDYA”, which protein production is on record?
A: not failed

Q: Which protein production does the source give for “MKPTNKAQDDDAVFALSTEVNHKLDLHQSSAEALRLAGVYTRQSCVLDLYHGYRSDDEDTEPDEEDGRLQTVREYHENGMLKLMRTFVRRLRRDATDPTAESSYYDRVVEEKHYDPSGICRVDMHFALGQPYLYRKHYYPNNRLKSEKVFFVEDEETMRARKVGHWRTYYENGNIQSEIIYNKDGVRCGFCKRYAIDGAIEWVKDYTREQEERLQAFNAKRGNLDLTVTDAARVLGLEGDWCSHVVNRTFRSKCAPLHPDWRRTAGDKAGETWEEEQRTEAFIRLSRAREVLLKFLETHPRECSCERGGA” here?
A: not failed

Q: For “MKPVFLDFEQPIAELTNKIDELRFVQDESAVDISDEIHRLQKKSNDLTKSIFSKLTPAQISQVSRHPQRPYTLDYIEALFTDFEELHGDRHFADDYAIVGGLARFNGQSVMVVGHQKGRDTKEKIRRNFGMPRPEGYRKALRLMKTAEKFGLPVMTFIDTPGAYPGIGAEERGQSEAIGKNLYELTRLRVPVLCTVIGEGGSGGALAVALGDYVNMLQYSTYSVISPEGCASILWKTAEKAADAAQALGITADRLQKLDLVDTVIKEPLGGAHRDFGQTMKNVKAVLEKQLHEAQSIPLADLLSRRFDRIMAYGKFSEQ”, which protein production is on record?
A: not failed

Q: Which protein production does the source give for “MKPVKVGICGLGTVGGGTFNVLQRNAEEIARRAGRGIEVAQIAVRTPNPNCQIGSTPTTSDVFAVATNPEIDIVVELIGGYTLARELVLKAIENGKHVVTANKALIAVHGNEIFAKAREKGVIVAFEAAVAGGIPVIKAIREGLSANRINWVAGIINGTGNFILTEMREKGRTFPDVLAEAQALGYAEVDPTFDVEGIDAAHKLTILASIAFGIPLQFDKAYTEGITKLTTADVNYAEALGYRIKHLGVARSTAQGIELRVHPTLIPADRLIANVNGVMNAVMVNGDASGSTLFYGAGAGMEPTASSVVADLVDVVRAMTSDPENRVPHLAFQPDSLSAHPILPIEACESAYYLRIQAKDHPGVLAQVASILSERGINIESIMQKEVEEHDGLVPMILLTHRVVEQRINDAIQALEALQDVVGPVVRIRVEHLN” here?
A: not failed

Q: For “MKQFGGPVLFLDRSDINTDEIIPAKYLTEITKEDLKPYILEDLKLPGFDPKGEKTKTARVVVSRANFGCGSSREHAPWVFEVNGITAVIAESFARIFRQNMFNCGMAAIELSADTIEGLFTYAGCADAAISIDVAGQTLTISGGGTSETHSFDISPFDKALVLAGGWVDYADSKY”, which protein production is on record?
A: failed

Q: For “MKQFVLFFISLFLLGVGARSQEMYQKKVFISSRGDSLNYRLLRPEVEKTGLQYPLVLFLHGAGERGSDNEKQLTHGGQMFLNPVNREKYPAFVLVPQCPEKDYWAYTSRPSSFIPSEMPVGQEITPVLRAVKELLDTYLDLPQVDRNRIYVVGLSMGGMATYDLAVRFPDTFAAAVPICGTVNPVRLADAANVRFRIFHGDADNVVPVEGSREAYKALKNLGAEVEYIEFPGCNHGSWNPAFNYPGFMEWLFAQRKR”, which protein production is on record?
A: failed

Q: With “MKQIIIAIGREFGSGGHLVAKKLAEHYNIPLYSKELLDEVAKDGRYSKEVLERFDEKPMNFAFIPVPAGGTTISLEQDIAIRQFNFIRKKANEEKESFVIVGRCAEEILSDNPNMISAFILGDKDTKTKRVMEREGVDEKTALNMMKKMDKMRKVYHNFYCESKWGDSRTYDICIKIGKVDVDTATDMIIKYIDSRDN” as the sequence, how does the protein production read?
A: not failed

Q: For “MKQKDLKRAYNNVLAQAISGSKQYLFAGNLFGDIFVLRIKELDKGSEEPPGKLKIFPQGSDVDINYLAFHRDFLIVGAVGLIYGLEWNEEEESLATKRSWEVKIPMQVDAVEVPDVNSMWLDSENSILFAGCGDGVIYQVSLEDGRIQREYRGHTDYVHSVVGNANGQIFSGAEDGTVRVWSTKQQQHTSMLEPYKNPNLLRPDWGKWIGAVAVNEDWLLCGGGPKASIFHLRSMESTCVFSFPGRVHLCDFVDDCVLIGGEHNHVQSYTLNGVLQANIPVEHTACYSAVWQTSPIKFISIAGFSNKLHILKDFRFLDSKIEMYGNVEGEENDPEEEDELIEKPLTVEAA”, which protein production is on record?
A: failed

Q: Which protein production does the source give for “MKQKSQMETRFVKPLSCLTLSIITTIGILPPATAQETSPAKSACEQVLSNAEQKPLTKQVQKLAQFADPQQERSQMIQQANALFSQGDLPGAEENLCKFLKKYSDDAFGHFQLGNVFFRGKKVEAAISAYQEAIRLRSRYAVAYNALGIVYASQSRWSEAIVQYQKALEINPDYGDALTNVALALWQTNKKDEALASLEKALNIFKKQNRNEKANQVEQLLQRIKNSDDNLS” here?
A: failed

Q: Which protein production does the source give for “MKQLLLGRNALFGLLGAIAVLTVVPVATIMPAYAVDDIEGADAPDLTAVQAKIAAKDYKGALAELRDLAQDNQQADVYNLLGFTLRKTGDVTTALTYYNKALELKPDHKAAREYLGELYVETGDMNKAKEQLASLQKLCPAGCEELSDLQKAIDTKVTQ” here?
A: failed

Q: With “MKQNLVAVDILLNQMRDRNIKLDSFVVSAIIETNCDRCRTEGASLAFDYSLEMGIHLKKSAYLALIGNFLRSNELPKVIEVVKEMVKAQHSLGCYQGAMLIHRLGFGRRPRLAADVFDLLPDDQKGVAAYTALMDVYISAGSPEKAMKILREMREREIMPSLGTYDVLLSGLEKTSDFQKEVALLRKEKKSLVASARFRENVHVEDKICDLLFATNLL” as the sequence, how does the protein production read?
A: failed

Q: Which protein production does the source give for “MKQQKGVALITILVMVALATILAATIAKHQGNTAESTGYLMRQNQSLLYAKSAEAFFSELLIQDAENSPDVDHLAETWAQPMPPFPVEDGFVSGTLRDESGKFNLNNLVNADGTPNPAAQLWFEQLLVRVGLPAELSQAVIDWQDPDDQITGAMGAESNYYQGLSHPYLAANSKFQSVDELRLVRGFEGKKFDLIRPYISALPSVSTTKVNINTAPALLLASIDKNLDINAVQVALKEKMANLGYFKSVDELWALDAFKNIDQDSKTKISTLLDVKSSYFKAYIEVVLSERKRQFTSDLMRNNKKVYVYSRSLTPIFDIPQN” here?
A: failed

Q: With “MKQRIPTLLAGACLAIPLHALGAADLLVVNARIFTANPQQPFAEALAVEDGRILAVGDEAGLRALADGDSQVVDLGGKRLMPGLIDTHSHAVFGGLELAGADMGNEQVGLDELERRLRAWRDNGKARHGDMLNVSGMHTAYWSQVKDFRARFDHGEWADQPLAFIGSDHHTGWANAAMLKRAGIDAARVRALPEEQRNTIGHDADATPNGFLADAGLDAVLAVLPAPSAEQMLEAGRSAVRYSNSLGLTAWMDPAANGSPGDALFSLRPDENTVGVLPVYHRLAKGGELSAHVAALLVANPRSRPTDLEVLDKVRQRFLGSPNLTLPGIKVFADGVPEYPAQTAALLEPYRNSRKTGELLIDPAHFGELVSAADARGWLVHVHAIGDRAVREALNGMQQARRDRDSGIAHSITHLQLVNPKEFERFRPLGVIASMQLYWAAADETTVDLMKPYISAFAYRYQYPAHSLLSKGATIAGASDWPVSSLSPWKAIQQAVTRKGPQGVLNAGERLDRQTMFYAYTRNAARTIGLEHRIGSLEPGKQADFIVLDRDVFEVPETQLGETKVLKTWFAGKPVYSSEG” as the sequence, how does the protein production read?
A: failed

Q: Which protein production does the source give for “MKQSGTAAHKLTIFYVGMLLLFLIGLWLFATIGKELETNVVDKAMSLRGRGGLVGAFDSFSESVHHHFTDTIGVLLLQIIVILTVARLVAWFFGKIGQPTVIGEIVAGILLGPSLLGAVWPEAYEVLFPLSALANLELLSQFGLILFMFVIGMELNINDIKPRFSQSMIISHAGIFIPFLLGLLISYMTYKDYAADTTTFLPYGLFIGISMSITAFPVLARIIQERQLGKSHLGMLSISTAAAGDISAWLMLAGVMAITQSGSFLSAIYNFLFLILYLLVIFGLVRPFFKVIGRLYDNQEVVSKTMIGFIFVLLLASAYATELLSMHALFGAFMLGLVMPENVQFRKILTEKVEDVSLTLFLPLFFVSSGLQTKLGLLDSASLWLLTGAFTLIAIIGKFGGTYVAARFCGERKKASLYLGAFMNTRGLMELVVLAIGRELGILPPVIFTILVMMTLITTFMTTPLLRLIDLFFKRETELENAALQKENSGAVLLSFGRASSGAHLLHATDLLMHRGDEKPSVTALHITVGSDTNLTSSEVYEERAFAPIREESDRRRLPIRTLHHHTFEHPEAEVVRTVNAGGYSFLLVGAGINLSDRKSDRELLYFRKKLQRKLGPISIATPEALLNAHEMLRDKMHYFIEQTQCSVGIFIHRGFKHAGKVLLLMENEGDEELLAYARSLARNNGSVLDVLPETDGLPPTLSMGENRLKAGLPSTINISSYHFMLVSYRYWLRFAGECPSVIEHLPSTIIIHHRNDRSSTLKAAMI” here?
A: failed

Q: For “MKRAVVVFSGGQDSTTCLIQALQDYDDVHCITFDYGQRHRAEIEVAQELSQKLGAAAHKVLDVGLLNELATSSLTRDSIPVPDYDANAQGIPNTFVPGRNILFLTLASIYAYQVGAEAVITGVCETDFSGYPDCRDEFVKALNQAIVLGIARDIRFETPLMWLNKAETWALADYYQQLDTVRYHTLTCYNGIKGDGCGQCAACHLRANGLAQYQKDAATVMASLKQKVGLR”, which protein production is on record?
A: not failed

Q: Which protein production does the source give for “MKRDVLYNRIILSVFLLSLVSCVAIYYAQQTNQYNTNFLGMQLVFLAIGTLTCFGVSRLPVEFLRHHAIWLYVIMVITLLGILIPNPLVQNINGATRWYRFAGLSFQPSEVVKSIFIFVLAHFAVKYQAQKWKQLGILTVLTGIVLLLIMKQPDLGTTIVYGVTALAIILLAIKSTKLMVGIITLILTAATVGMYVVVYHISLLEKIGFHAYQFSRIQTWLDPTTDPDAVYQLNLSMKAVGSGMMTGSSGTNAYIPESHTDMIFSTIGHQFGFVGVSLLLILFMVLIHQLIMAALLMKNTFSSLVLAGFAVSFAFNIFENIGMTVGLMPLTGIPLPFISYGGSAVLGNFIAVGVVLAIIRSDADLIEEK” here?
A: failed

Q: Which protein production does the source give for “MKRFCNGLLASALVLSLLLTGCGAAGGQQPAQASGPEQPAVRTVTDAEGNVVEVPQDISRIAVTPLPWSSVVSAIDGGSQRLASINPGALKAYSGSFFAKLDKNYATLDDTSIGSDFSINVEELLNRQVQVVIIWEYQTAEAAKLKDVGIVPVMVKNGNVQELQDSFKAVGQLLGKEERAKWVNDEYAKAYEKMKSYGEQVKKADKPRVLYLKRSDLTLQGNDNFIKESMELAGADNIAAEAKSITMEEILKLDPEIILLSDFDKFLPQDLYENRIEGQDWSSVSAVVNKRVYKTPVGIYRWDAPGVETPLMMFWLGKMLQPEIFSEVDLKAEMKAFYQDVFDYSLTDEDFGQIFNDKANAASERRIS” here?
A: failed
